Patent US20240084286A1, “METHODS AND COMPOSITIONS FOR INCREASING THE CONCENTRATION OF CELL FREE DNA” (The Broad Institute, Inc., priority 2021, published 2024)
“Also recorded” adds a separate entry of the source. Each block holds one molecule with its values, some of them ahead of it.

How the values were obtained:
[1] = system: DNase I; experiment: Fluorophore-quencher dsDNA nuclease protection fluorescence assay; format: biochemical
Source text: FIGS. 8A-8B present the protection of dsDNA from nuclease digestion by various dsDNA binders. FIG. 8A presents a fluorescence assay measuring nuclease activity in digestion of dsDNA, which is diminished in presence of dsDNA binders.
FIGS. 28A-28E: FIG. 28A presents an experimental workflow for testing the effect of a DNA binding agent on clearance and degradation of cfDNA. A DNA-binding monoclonal antibody (mAb) is combined with recombinant nucleosome core particles (NCPs) consisting of a human histone octamer complexed with 20 ng of the Widom601 double-stranded DNA (dsDNA) oligonucleotide. […] Levels of Widom601 were quantified via Taqman qPCR. […]
The ability of DBP's—both known proteins and novel ones generated above—to protect dsDNA from nuclease digestion using a previously-established plate-based fluorescence assay was evaluated Known DBP's that can be tested included anti-dsDNA antibodies (some commercially available, e.g. Abcam ab27156),^20,21 members of the protamine family of DBP's, 22 and a family of small DNA-binding archaeal proteins including Sso7d.^23-25 A commercially available dsDNA probe conjugated to a HEX fluorophore and a quencher was incubated with recombinant DNase 1 and DNase 1L3 (the predominant nucleases in circulation). […]

[2] = system: DNase; experiment: Nuclease digestion time-series / electropherogram of dsDNA; format: biochemical; conditions: dsDNA oligonucleotide

protection of dsDNA from nuclease digestion [1]: protect it from digestion by nucleases
Molecule: protamine sulfate [reference compound]

protection of dsDNA, digestion time-series [2]: dsDNA protection
B1: Sso7d: Small archaeal histone-like DNA-binding protein from Sulfolobus solfataricus, SEQ ID NO: 3 (protein, listed as Saccharolobus solfataricus)
chain: MATVKFKYKGEEKEVDISKIKKVWRVGKMISFTYDEGGGKTGRGAVSEKDAPKELLQMLEKQKK
protection of dsDNA from nuclease digestion [1]: protect it from digestion by nucleases; also recorded: protect dsDNA from DNase I digestion
